According to IntAct's records for PubMed 22705791:

B1: Double-strand break repair protein MRE11 (Saccharomyces cerevisiae), P32829 (parent)
chain: MDYPDPDTIRILITTDNHVGYNENDPITGDDSWKTFHEVMMLAKNNNVDMVVQSGDLFHVNKPSKKSLYQVLKTLRLCCMGDKPCELELLSDPSQVFHYDEFTNVNYEDPNFNISIPVFGISGNHDDASGDSLLCPMDILHATGLINHFGKVIESDKIKVVPLLFQKGSTKLALYGLAAVRDERLFRTFKDGGVTFEVPTMREGEWFNLMCVHQNHTGHTNTAFLPEQFLPDFLDMVIWGHEHECIPNLVHNPIKNFDVLQPGSSVATSLCEAEAQPKYVFILDIKYGEAPKMTPIPLETIRTFKMKSISLQDVPHLRPHDKDATSKYLIEQVEEMIRDANEETKQKLADDGEGDMVAELPKPLIRLRVDYSAPSNTQSPIDYQVENPRRFSNRFVGRVANGNNVVQFYKKRSPVTRSKKSGINGTSISDRDVEKLFSESGGELEVQTLVNDLLNKMQLSLLPEVGLNEAVKKFVDKDEKTALKEFISHEISNEVGILSTNEEFLRTDDAEEMKALIKQVKRANSVRPTPPKENDETNFAFNGNGLDSFRSSNREVRTGSPDITQSHVDNESRITHISQAESSKPTSKPKRVRTATKKKIPAFSDSTVISDAENELGDNNDAQDDVDIDENDIIMVSTDEEDASYGLLNGRKTKTKTRPAASTKTASRRGKGRASRTPKTDILGSLLAKKRK
partner: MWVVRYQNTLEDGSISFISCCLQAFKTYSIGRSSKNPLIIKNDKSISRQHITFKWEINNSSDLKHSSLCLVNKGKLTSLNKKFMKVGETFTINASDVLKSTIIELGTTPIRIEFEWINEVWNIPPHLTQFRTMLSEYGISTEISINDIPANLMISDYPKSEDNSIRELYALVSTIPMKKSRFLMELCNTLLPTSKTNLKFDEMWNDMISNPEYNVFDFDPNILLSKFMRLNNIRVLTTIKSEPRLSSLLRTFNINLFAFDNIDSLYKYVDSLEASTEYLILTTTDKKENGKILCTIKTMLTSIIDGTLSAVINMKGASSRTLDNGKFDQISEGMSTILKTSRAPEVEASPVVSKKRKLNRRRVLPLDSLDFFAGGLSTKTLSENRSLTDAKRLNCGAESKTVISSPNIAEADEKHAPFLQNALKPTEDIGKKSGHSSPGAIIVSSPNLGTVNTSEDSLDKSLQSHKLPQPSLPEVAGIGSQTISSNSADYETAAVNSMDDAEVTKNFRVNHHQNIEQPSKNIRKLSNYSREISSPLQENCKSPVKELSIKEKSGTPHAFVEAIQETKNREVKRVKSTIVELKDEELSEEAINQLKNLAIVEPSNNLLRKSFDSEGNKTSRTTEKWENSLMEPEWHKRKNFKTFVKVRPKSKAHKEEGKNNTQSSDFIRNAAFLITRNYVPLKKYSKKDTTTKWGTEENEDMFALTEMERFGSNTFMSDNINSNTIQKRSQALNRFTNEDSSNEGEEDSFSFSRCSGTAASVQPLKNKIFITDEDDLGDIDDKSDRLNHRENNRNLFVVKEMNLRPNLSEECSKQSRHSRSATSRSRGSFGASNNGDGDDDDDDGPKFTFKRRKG

Variants of: B1
Details: with xrs2_yeast XRS2, P33301

Variant	effect of a mutation on the interaction
R76A	disrupting interaction strength
R76K	disrupting interaction strength
N113S	disrupting interaction strength
D109G	disrupting interaction strength
